{"source": "patent US20250382384A1", "binders": {"B1": {"name": "huBG138P-Hz2 (antibody, V domains shown)", "VH": "QVQLVQSGAEVKKPGASVKVSCKASGYTFTTYTMHWVRQAPGQRLEWMGYINPGSDYTHYNQKFKDRVTITADTSASTAYMELSSLRSEDTAVYYCARQGNYAAYYFDYWGQGTLVTVSS", "VL": "DIQMTQSPSSLSASVGDRVTITCRASGNIHNFLVWYQQKPGKSPKLLIYNAKTLTSGVPSRFSGSGSGTQYTLTISSLQPEDVATYYCQNFWNVPFTFGQGTKLEIK"}}, "key": {"[1]": {"target": "cynomolgus MUC1 SEA domain protein (cynomolgus)", "assay": "SPR, antibody captured, cynoMUC1 SEA analyte"}, "[2]": {"target": "full-length cynomolgus MUC1 on stably transfected cells (cynomolgus)", "sequence (chain, as listed by the source limits assumed, form in doubt)": "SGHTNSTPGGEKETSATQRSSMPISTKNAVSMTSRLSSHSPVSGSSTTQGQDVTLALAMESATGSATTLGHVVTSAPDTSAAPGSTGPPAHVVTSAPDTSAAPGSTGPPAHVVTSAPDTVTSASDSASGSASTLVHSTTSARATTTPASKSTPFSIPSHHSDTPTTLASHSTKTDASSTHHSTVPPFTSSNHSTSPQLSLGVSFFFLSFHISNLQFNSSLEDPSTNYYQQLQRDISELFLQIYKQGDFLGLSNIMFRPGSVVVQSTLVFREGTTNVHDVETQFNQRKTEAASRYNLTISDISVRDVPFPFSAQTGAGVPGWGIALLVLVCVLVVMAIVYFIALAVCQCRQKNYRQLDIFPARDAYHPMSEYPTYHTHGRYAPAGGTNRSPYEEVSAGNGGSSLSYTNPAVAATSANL", "assay": "FACS (iQue3) on HEK293-cynoMUC1 cells"}}}
{"binder": "B1", "values": [{"measurement": "Kd", "setting": "[1]", "value": 6.67, "unit": "nM"}, {"measurement": "EC50 (read off the curve)", "setting": "[2]", "value": 3, "unit": "nM"}]}
